Experimental data published in the nanobody polyreactivity screen of Harvey et al. (2022).

assay: yeast display, Sf9 membrane polyspecificity reagent, FACS + sequencing; frameworks hold sequencing errors
Outline: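 In a synthetic yeast display library (Saccharomyces cerevisiae BJ5465), nanobody expression was induced with galactose for 36–48 hours. FACS gates were set low and high (top ~1%) using anti-HA fluorescence for expression and streptavidin fluorescence for binding of the Sf9 membrane reagent. Each polyreactivity label is drawn from the gate of origin.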

Sequence | polyreactivity (PSR sort gate)
QVQLVESGGGLVQAGGSLRLSCAASGYTFVRYALGWYRQAPGKEMELVAAMSRSGGSTYYADSVKGRFTISRDNAKNTVYLQMNSLKPEDTAVYYCNAYPYSYYDYDYWGQGTQVTVSS | high polyreactivity
QVQLVESGGGLVQAGGSLRLSCAASGYTFVTYAMGWYRQAPGKERELVAAISYTGGSTYYADSEKGRFTISRDNAKNTVYLQMNSLKPEDTAVYYCNTRYSLYTKYAYYDEHDYWGQGTQVTVSS | low polyreactivity
QVQLVESGGGLVQAGGSLRLSCAASGYTFVYYAMGLYREAPGKERELVAAITSGGRTNYADSVKGRFTISRDNAKNTVYLQMNSLKPEDTAVYYCNVDGYYLFVRGYEYWGQGTQVTVSS | low polyreactivity
QVQLVESGGGLVQAGGSLRLSCAASGYTFWRYAMGWYRQAPGKERELVAAISQSGGRTYYADSVKGRFTISRDNAKNTVYLQMNSLKPEDTAVYYCATSSTQGDDYWGQGTQVTVSS | high polyreactivity
QVQLVESGGGLVQAGGSLRLSCAASGYTFYANAMGWYRQAPGKEREFVASSTWSGGSTYYADSVKGRFTISRDNAKNTVYFQMNSLKPEDTAVYYCAADSWFKYDYWGQGTQVTVSS | low polyreactivity
QVQLVESGGGLVQAGGSLRLSCAASGYTFYFYARGWYRQAPGKERELGAAITGGGTTSYADSVKGRFTISRDNAKNTVYLQMNSLKPEDTAVYYCNLLFADKSDYWGQGTQVTVSS | low polyreactivity
QVQLVESGGGLVQAGGSLRLSCAASGYTFYINATGWYRQAPGKERELVAVITWSSGSTYYADSVKGRFTISRDNAKNTVYLQMNSLKPEDTAVYYCAADVTYEDGAWTIQYDYWGQGTQVTVSS | high polyreactivity
QVQLVESGGGLVQAGGSLRLSCAASGYTFYSNAMGWYRQAPGKETELVASIRSRGRSTYYADSVKGRFTISRDNAKNTVYLQMNSLKPEDTAVYYCAALPNKPAVYAYDYWGQGTQVTVSS | low polyreactivity
QVQLVESGGGLVQAGGSLRLSCAASGYTFYSYAMGWYRQAPGKERELFAAITESGARTYYADSVKGRFTISRDNAKNTVYLQMNSLKPEVTAVYYCAADYAWPLRVTGDYWGQGTQVTVSS | low polyreactivity
QVQLVESGGGLVQAGGSLRLSCAASGYTFYSYAMGWYRQEPGKERELVAAIRTGGGTIYADSVKGRFTISRDNAKNTVYLQMNSLKPEDTAVYYCAAESGYPVYTYVSSGDYWGQGTQVTVSS | low polyreactivity
QVQLVESGGGLVQAGGSLRLSCAASGYTIGNNAMGWYRQAPGKERELVARIRTNGGTTYYADSVKGRFTISRDYAKNTVYLQMISLKPEDTAVYYCIAYRGYEYDYWGQGTQVTVSS | low polyreactivity
QVQLVESGGGLVQAGGSLRLSCAASGYTLTINVMGWYRQAPGKERELVAAITSSGASTNYADSVKGRFTISRDNAKNTVYLQMNSLKPEDTAVYYCNVVNEHQSDFVVPFDYNHWGQGTQVTVSS | low polyreactivity
QVQLVESGGGLVQAGGSLRLSCAASGYTSKTYAMGWYRQAPGKERELVAAINWGSGSTYYADSVKGRFTISRDNAKNTVYFQMYSLKPEDTAVYYCAALVYGHRRLVGNLSRGYWGQGTQVTVSS | high polyreactivity
QVQLVESGGGLVQAGGSLRLSCAASGYTSSLNAMGWYRQAPGKERELVARITTDGTSTYYADSVKGRFTISRDNANNTVYLQMNSLKPEDTAVYYCAAEYSYVQFGFGYWGQGTQVTVSS | low polyreactivity
QVQLVESGGGLVQAGGSLRLSCAASGYTVWGYAMGWYRQAPGKERELVADITISGGSTYYADSVKGRFTISRDNAKNTVYLQMNSLKPDDSAVYYCAASRAFSWWLSYDYWGQGTQVTVSS | high polyreactivity
QVQLVESGGGLVQAGGSLRLSCAASGYTYGTYDMRWYRQAPGKERELVAAFSIGGSTNYADSVKGRFTISRDNAKNTVYLQMNSLKPEDTAVYYCAAEVNVGTLLLSVIVEDGDYWGQGTQVTVSS | low polyreactivity
QVQLVESGGGLVQAGGSLRLSCAASGYTYPQNAMGWYIKAPGKERDLFAAISRSGGSTNYADSVKGRNTISRDNAKNTVYLQMNILKPEDTAVYYCARYNYTRQTRVEYGYWGQCTQVTVSS | high polyreactivity
QVQLVESGGGLVQAGGSLRLSCAASGYYAMGWYRQAPGKERELVAAITWSGGTTYYADSVKGRFTISRDNAKNTVYLQMNSLKPEDTAVYYCNADFVRYTRHKKYYYWGQGTQVTVSS | low polyreactivity
QVQLVESGGGLVQAGGSLRLSCAASLIFANYAMGWYRQAPGKERELVAAISSVGRTYYADSVKGRFTISRDNAKNTVYLQMNSLKPEDTAVYYCAAESWFKYDYWGQGTQVTVSS | low polyreactivity
QVQLVESGGGLVQAGGSLRLSCAASRFIFWSYAMGWYIQAPGTEREMVAAIDMTGGSTYYADYVKGRFTISRDNAKNTVYLQMNSLKPEDTAVYYCNADGDTYAFTNSDSGFDYWGQGTQVTVSS | low polyreactivity
QVQLVESGGGLVQAGGSLRLSCAASRFIFWSYAMGWYRQAPGKERELVAAISWRGGSTYYADSVKGRFTISRDNAKNTVYLQMNSLKPEDTAVYYCAAESYNGYDYWGQGTQVTVSS | high polyreactivity
QVQLVESGGGLVQAGGSLRLSCAASRFLFWSYAMGWYRQAPGKERELVAAISWRGGSTYYADSVKGRFSISRDTAKNTVYLQMNSLKPEDTAVYYCAAERYNGYDYWGQGTQVTVSS | high polyreactivity

Sequence | polyreactivity (PSR sort gate)
QVQLVESGGGLVQAGGSLRLSCAASRIFRGYAMGWYRQAPGKERELVAAIRRGGSTNYADSVKGRFTIARDNAKNTVYLQMNSLKPEDTAVYYCNAYLYFPRYDYWGQGTQVTVSS | high polyreactivity
QVQLVESGGGLVQAGGSLRLSCAASRIIFTHNAMGWYRQAPGKERELVAAISWSGGSTYYADSVNGRFTISRDNAKNTVYIEMNSLKPEDTAVYYCAAPYFTYGQDDDDYWGQGTQVTVSS | low polyreactivity
QVQLVESGGGLVQAGGSLRLSCAASRRIFWSNAMGWYRQEPGKERELVAAISRRGGRTYYADSVKGRFTISLDNAKNSVYLQMNSLKPEDTAVYYCAADGTADYDYWGQGTQVTVSS | high polyreactivity
QVQLVESGGGLVQAGGSLRLSCAASRRTSRYYAMGWYRQAPGKETEFVAAINFSGGRTYYADSVKGRFTISRDNAKNSVYLQMNSLKPEDTAVYYCATQDYRYRYSRFGYWGQGTLVTVSS | high polyreactivity
QVQLVESGGGLVQAGGSLRLSCAASRSIFSIYAMGWYRQAPGKERELVAAITWGGGSTYYADSVKGRFTISRDNAKNTVYLQMNSLKPEDTALYYCAADSLTWYGTYYYWGQGTQVTVSS | high polyreactivity
QVQLVESGGGLVQAGGSLRLSCAASVFIFGLYAMGWYRQAPGKERELVAAISRSGGSTYYADSVKGRFTISRDNEKNTVYLQMNSLKPEDTAVYYCAKRASPRQAGPIYDSWGQGTQVTVSS | high polyreactivity
QVQLVESGGGLVQAGGSLRLSCAASVFTVYGMGWYRQAPGKERELVAAISTGGNTYYADSVKGRFTISRDNAKNTVYLQMNSLKPEDTAVYYCNRRYRYYGLWYGYWGQGTQVTVSS | high polyreactivity
QVQLVESGGGLVQAGGSLRLSCAASVGTFSPNTMGWYRQAPGKERELVAAISSSGSTSYADSVKGRFTISRDNAKNTVYLQMNSLKPEDTAGYFCNADDTISYYASGFDNYDYWGQGTQVTVSS | low polyreactivity
QVQLVESGGGLVQAGGSLRLSCAASVGWYRQAPGKERELVAAISFSGGSTYYADSVKGRFTISRDNAKNTVYLQMNSLKPEDTAVYYCAAENFWQTKEYDYWGQGTQVTVSS | low polyreactivity
QVQLVESGGGLVQAGGSLRLSCAASVLILYYYAMGWYRQAPGKERELVAAISRRDGDTYYADSVKGRFTISRDNAKNTVYLQMNSLKPEDTAVYYCAADRRWSWVFRDDYWGQGTQVTVSS | low polyreactivity
QVQLVESGGGLVQAGGSLRLSCAASVRIFDYNAMGWYRQAPGKERELVAAITSGGSTNYADSVKGRFTISRDNAKNTVYLQMNSLKPEDTAVYYCNAEPETTIDYWGQGTQVTVSS | low polyreactivity
QVQLVESGGGLVQAGGSLRLSCAASVRIFWPYAMGWYRQAPGKERELVAAITLSGGSTYYADSVKGRFTISRDNAKNTVYLQKNCMKPVETAVYYSAGDHKRTWGGDQGKSHGYWGQGTKVTVSS | low polyreactivity
QVQLVESGGGLVQAGGSLRLSCAASVRISESNDMGWYRQAPGKERELVAAISSSGGSTYYADSVKGRFTISRENAKNTVYLQMNSLKPEDTAVYYCNAVYYRTVLKIGVYEYDFWGQGTQVTVSW | low polyreactivity
QVQLVESGGGLVQAGGSLRLSCAASVRTFYIYAMGWYIQAHGKERELVAAITSVGSTNYADSVKGRFTISRDNAKNTVNLQMNSLKPEDTAVYYCAAESTEGTSGDYDYWGQGTQVTVSS | low polyreactivity
QVQLVESGGGLVQAGGSLRLSCAASVRTLPSYAMGWYRQAPGKERELVAAISQSGGSTYYADSVKGRFTISRDNAKNTVYLQMNSLKPEDTAVYYCNAGYYYKYSPRRFDYWGQGTQVTVSS | high polyreactivity
QVQLVESGGGLVQAGGSLRLSCAASVRTSRLYAMGWYRQAPGKERELDASITRGGSTYADSVKGRFTISRDNAKNTVYLQMNSLKPEDTAVDYCNAELYVPPYDDDYWGQGTQVTVSS | high polyreactivity
QVQLVESGGGLVQAGGSLRLSCAASVSTFGRYVMGWYRQAPGKERELVAAISKNAGSTYYADSVKGRFTISRDNAKNTVYVQMNSLKPEDTAVYYCAADWRTKGYDSLGQGTQVTVSS | high polyreactivity
QVQLVESGGGLVQAGGSLRLSCAASVSTFPQYAMGWYRQAPGKERELVAAISWSGGRTYYADSVKGRFTISRDNAKNTVYLQMNSLKPEDTAVFYCAATYPGQYGYNYWGQGTQVTVSS | high polyreactivity
QVQLVESGGGLVQAGGSLRLSCAASVSTFSYNYMGWYRQAPRKERELDAAISSGGSTKYADSVKGRFRISRDNAKNTVYLQMNSLKPEDTAVYYCIKDYPQNPLPASSYYLYDYWGQGTQVTVSS | high polyreactivity
QVQLVESGGGLVQAGGSLRLSCAASVYAMGWYRQAPGKERELVAAITDSGSTNYADSVKGRFTISRDNAKNTVYLQMNTLKPEDTAVYYCNADPYYATGSWARLPLYQYDYWGQGTQVTVSS | low polyreactivity
QVQLVESGGGLVQAGGSLRLSCAASYNAMGWYRQAPGKEREFVAGITQSGGSTYYADSVKGRFTISRDNAKNTVYLQMNSLKAEDTAVYYCAKRLYKWGQGTQVTVSS | low polyreactivity
